Experimental data reported in the supplement of paper PMC10567573.

B1: SPOPL (parent)
chain: PDDKLTLFCEVSVVQDSVNISGHT

Variants of: B1
Test: protein stability index of a GFP-peptide fusion (GPS, HEK-293T) (PSI 1-6); higher = more stable
Conditions: c terminus: a fixed tail appended
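Also: lentivirally expressed fusions sorted by FACS into six bins by GFP to DsRed ratio, PSI derived from sequencing read proportions per bin multiplied by bin number.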

Protein stability index, by site and new letter:
V14: I 2.56; E 3.34; T 1.86; P 3.59; C 1.66; H 3.19; G 2.54; R 2.74; S 2.07; F 2.08; D 3.07; Q 2.7; Y 1.67; W 1.81; A 2.63; N 2.62; M 2.01; K 2.7; L 1.71
V11: C 3.34; R 3.67; Q 4.62; I 1.95; G 4.76; S 4.47; F 2.61; A 4.34; E 4.81; L 1.93; M 2.77; Y 2.46; T 4.26; K 4.85; P 4.58; N 4.78; D 4.64; W 2.14; H 4.28
S12: K 2; E 2.23; T 1.71; R 2.32; N 2.79; H 1.71; P 3.81; F 2.22; G 1.94; Q 1.73; L 2.1; M 1.79; C 2.73; W 1.98; A 3.08; I 2.11; V 2.53; D 3.66
F8: Y 2.08; P 4.79; H 3.64; C 3.22; N 4.86; S 3.96; Q 4.5; K 3.48; G 4.82; T 2.9; W 1.62; D 4.94; A 3.65; L 2.91; E 4.39; R 2.77; I 1.3; V 1.97; M 2.86
Q15: A 1.71; R 1.44; N 1.97; P 3.1; H 1.28; K 2.12; T 2.31; G 1.97; E 3.4; S 2.44; D 3.19; F 3.28
E10: M 3.02; Q 2.27; T 3.3; A 2.48; H 2.12; V 3.33; G 2.52; D 2.76; K 1.45; W 2.53; I 2.63; S 1.58; R 1.94; F 3.15; P 3.44; N 2.74; L 3.02; C 2.81
D16: E 1.33; A 2.28
T6: W 3.41; S 2.32; Y 1.25
V13: I 2.51; G 4.14; P 3.99; K 3.11; S 3.6; N 4.03; Q 3.95; C 2.57; M 2.12; H 3.63; W 2.73; A 3.35; D 4.61; L 2.02; E 4.61; F 2.03; Y 1.94; R 4.14; T 3.79
L7: N 4.32; I 1.25; R 3.94; Q 4.62; G 4.28; D 4.88; P 4.52; H 3.79; C 2.72; V 1.92; E 4.9; F 1.81; W 1.75; A 4.2; Y 2.72; M 2.68; K 4.78; S 3.49; T 3.88
C9: D 4.71; K 4.34; S 4.52; Q 4.21; N 4.34; P 4.91; T 3.83; Y 2.07; A 3.47; V 3.85; M 2.13; R 4.54; L 3.25; H 4.09; E 4.47; G 4.42; F 2.35; I 3.05; W 2.62
